In test [1] the target is T1, Human TfR apical domain (human, UniProt P02786 198-378).
T1 construct: also called apical hTfR; human apical hTfR
Put plainly: SPR (Biacore 8K), fusion protein captured with Human Fab Capture Kit, human TfR apical domain as analyte, 1:1 kinetic fit. Here is the method:
The affinities of Fc polypeptide dimer-antibody variable region fusion proteins for human TfR apical domain and HER2 ECD were determined by surface plasmon resonance using a Biacore™ 8K. Fc polypeptide dimer-antibody variable region fusion proteins were captured using a Human Fab Capture Kit (GE, #28-9583-25) on Biacore™ Series S CM5 sensor chips (GE, #29149604) for measurement of human TfR apical domain binding, or using a Human Fc capture Kit (GE, #29234600) for measurement of human HER2-ECD binding (ACROBiosystems, HE2-H5225). Serial 3-fold dilutions of each antigen were injected at a flow rate of 30 μL/min. The binding of the antigens to captured Fc polypeptide dimer-antibody variable region fusion proteins was monitored for 30 to 300 seconds and then their dissociation was monitored for 30-4,200 seconds in HBS-EP+ running buffer. Binding responses were corrected by subtracting the RU from a blank flow cell. A 1:1 Languir model of simultaneous fitting of kₒₙ and koff was used for kinetics analysis.

Test [2] concerns the target T1, Human TfR apical domain. In words: SPR (Biacore), apical hTfR.
In test [3] the target is T1, Human TfR apical domain. In words: SPR (Biacore T200 or 8K), captured via anti-human Fab, recombinant TfR apical domain as analyte, steady-state affinity. How it is done:
(§1) Affinities of mAbs and TfR-binding Fc polypeptides were measured by SPR using a Biacore T200 or a Biacore 8K. Biacore™ Series S CM5 sensor chips were immobilized with monoclonal mouse anti-human IgG (Fc) antibody for HER2 affinity measurements or mouse anti-human Fab for TfR affinity measurements (human antibody or Fab capture kit from GE Healthcare). Serial 3-fold dilutions of analyte (recombinant HER2 extracellular domain or recombinant TfR apical domain) were injected at a flow rate of 30 μL/min. Each sample was analyzed using a 3-minute association and a 10-minute dissociation. After each injection, the chip was regenerated using 3 M MgCl₂. Binding response was corrected by subtracting the RU from a flow cell capturing an irrelevant IgG at similar density. A 1:1 Languir model of simultaneous fitting of kₒₙ and koff was used for kinetics analysis.

For test [4], the target named is HER2 on HER2-positive cancer cells (BT474, OE19, SK-BR-3) (human, UniProt P04626 23-1255). In words: cell-based or functional assay.
Test [5] has as its target T2, HER2 extracellular domain (human, UniProt P04626 23-652).
T2 construct: extracellular domain; also called HER2 ECD; HER2-ECD
In words: SPR (Biacore T200 or 8K), captured via anti-human IgG (Fc), recombinant HER2 extracellular domain as analyte, 1:1 kinetic fit. How it is done:
as §1

Test [6] has as its target T1, Human TfR apical domain. Put plainly: SPR (Biacore), antibody captured via anti-human Fab, recombinant TfR apical domain as analyte; the table footnote says NB = no binding. How it is done:
as §1

T1 sequence (P02786 198-378 limits assumed): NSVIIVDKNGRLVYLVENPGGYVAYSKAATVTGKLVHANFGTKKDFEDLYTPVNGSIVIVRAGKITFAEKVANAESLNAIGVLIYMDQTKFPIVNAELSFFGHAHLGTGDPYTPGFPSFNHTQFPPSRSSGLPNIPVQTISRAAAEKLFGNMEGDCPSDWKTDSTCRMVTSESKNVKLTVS

B1: HER2_DII-35.23.1.1^cisLALA (bispecific antibody, human IgG1, kappa, L234A L235A)
heavy 1: EVQLVESGGGLVQPGGSLRLSCAASGFTFTDYTMDWVRQAPGKGLEWVADVNPNSGGSIYNQRFKGRFTLSVDRSKNTLYLQMNSLRAEDTAVYYCARNLGPSFYFDYWGQGTLVTVSSASTKGPSVFPLAPSSKSTSGGTAALGCLVKDYFPEPVTVSWNSGALTSGVHTFPAVLQSSGLYSLSSVVTVPSSSLGTQTYICNVNHKPSNTKVDKKVEPKSCDKTHTCPPCPAPEAAGGPSVFLFPPKPKDTLMISRTPEVTCVVVDVSHEDPEVKFNWYVDGVEVHNAKTKPREEQYNSTYRVVSVLTVLHQDWLNGKEYKCKVSNKALPAPIEKTISKAKGQPREPQVYTLPPSRDELTKNQVSLWCLVKGFYPSDIAVEWESFGTEWSNYKTTPPVLDSDGSFFLYSKLTVSKEEWQQGFVFSCSVMHEALHNHYTQKSLSLSPGK
heavy 2: not shown
light: not shown
notes: Fc polypeptide dimer-Fab fusion; the second heavy chain is a hole Fc without a TfR site; also called ATV35.23.1.1:Her2_DII huIgG1.LALA.knob
For B1, the Kd with Human TfR apical domain [1] was determined as 534 nM; with Human TfR apical domain [2], 620 nM.

B2: HER2_DII-35.23.4^cisLALA (bispecific antibody, human IgG1, kappa, L234A L235A)
heavy 1: EVQLVESGGGLVQPGGSLRLSCAASGFTFTDYTMDWVRQAPGKGLEWVADVNPNSGGSIYNQRFKGRFTLSVDRSKNTLYLQMNSLRAEDTAVYYCARNLGPSFYFDYWGQGTLVTVSSASTKGPSVFPLAPSSKSTSGGTAALGCLVKDYFPEPVTVSWNSGALTSGVHTFPAVLQSSGLYSLSSVVTVPSSSLGTQTYICNVNHKPSNTKVDKKVEPKSCDKTHTCPPCPAPEAAGGPSVFLFPPKPKDTLMISRTPEVTCVVVDVSHEDPEVKFNWYVDGVEVHNAKTKPREEQYNSTYRVVSVLTVLHQDWLNGKEYKCKVSNKALPAPIEKTISKAKGQPREPQVYTLPPSRDELTKNQVSLWCLVKGFYPSDIAVEWESYGTEWSNYKTTPPVLDSDGSFFLYSKLTVSKEEWQQGFVFSCSVMHEALHNHYTQKSLSLSPGK
heavy 2: not shown
light: not shown
notes: also called ATV:HER2-DII; ATV:-HER2-DII
As to B2, the equilibrium dissociation constant (Kd) with Human TfR apical domain [3] came to 450 nM. In test [4], the “IC50, BT474 cell viability (growth inhibition assay)” value amounted to 1.17 nM and the “IC50, OE19 cell viability (growth inhibition assay)” value was 0.725 nM. The same molecule came in with a dissociation constant Kd with Human TfR apical domain [1] of 445 nM.

B3: anti-HER2-DI (antibody, human IgG1, kappa, V domains shown)
VH: QVQLQQPGAELVRPGASVKLSCKASGYSFTGYWMNWLKQRPGQGLEWIGMIHPSDSEIRANQKFRDKATLTVDKSSTTAYMQLSSPTSEDSAVYYCARGTYDGGFEYWGQGTTLTVSS
VL: DIVLTQSPASLVVSLGQRATISCRASQSVSGSRFTYMHWYQQKPGQPPKLLIKYASILESGVPARFSGGGSGTDFTLNIHPVEEDDTATYYCQHSWEIPPWTFGGGTKLEIKR
Regarding B3, in test [5], the Kd is 6.5 nM, the koff is 0.00101 s⁻¹ and the on-rate (kon) was determined as 154000 M⁻¹ s⁻¹. Also, the binding result with Human TfR apical domain [6] is reported as “no binding”.

B4: HER2_DI-35.23.4^cisLALA (bispecific antibody, human IgG1, kappa, L234A L235A)
heavy 1: QVQLQQPGAELVRPGASVKLSCKASGYSFTGYWMNWLKQRPGQGLEWIGMIHPSDSEIRANQKFRDKATLTVDKSSTTAYMQLSSPTSEDSAVYYCARGTYDGGFEYWGQGTTLTVSSASTKGPSVFPLAPSSKSTSGGTAALGCLVKDYFPEPVTVSWNSGALTSGVHTFPAVLQSSGLYSLSSVVTVPSSSLGTQTYICNVNHKPSNTKVDKKVEPKSCDKTHTCPPCPAPEAAGGPSVFLFPPKPKDTLMISRTPEVTCVVVDVSHEDPEVKFNWYVDGVEVHNAKTKPREEQYNSTYRVVSVLTVLHQDWLNGKEYKCKVSNKALPAPIEKTISKAKGQPREPQVYTLPPSRDELTKNQVSLWCLVKGFYPSDIAVEWESYGTEWSNYKTTPPVLDSDGSFFLYSKLTVSKEEWQQGFVFSCSVMHEALHNHYTQKSLSLSPGK
heavy 2: not shown
light: DIVLTQSPASLVVSLGQRATISCRASQSVSGSRFTYMHWYQQKPGQPPKLLIKYASILESGVPARFSGGGSGTDFTLNIHPVEEDDTATYYCQHSWEIPPWTFGGGTKLEIKRTVAAPSVFIFPPSDEQLKSGTASVVCLLNNFYPREAKVQWKVDNALQSGNSQESVTEQDSKDSTYSLSSTLTLSKADYEKHKVYACEVTHQGLSSPVTKSFNRGEC
notes: Fc polypeptide dimer-Fab fusion; the hole chain has no TfR site and no LALA; also called ATV:HER2-DI; ATV:-HER2-DI
Consider B4, for which the Kd with Human TfR apical domain [3] is 370 nM. For the same molecule, in test [5], the Kd is 7.5 nM, the koff came out at 0.00105 s⁻¹ and the kon came to 139000 M⁻¹ s⁻¹.

The record behind these values is US20220002436A1 (DENALI THERAPEUTICS, published 2022).
